{
  "source": "patent US10927175B2",
  "about": "“Method for treating cancer” (Sun Jet Biotechnology Inc., priority 2017, dated 2021)",
  "origin": "cited, not measured here",
  "system": "metastatic duodenal adenocarcinoma",
  "conditions": "gradually decreasing prednisolone and replacing tacrolimus with sirolimus after nivolumab",
  "data": [
    {"substance": "nivolumab", "values": [
      {"measurement": "allograft outcome", "result": "preserved"},
      {"measurement": "tumor outcome", "result": "regressed"}
    ]}
  ]
}
